IntAct's records for PubMed 24183572

B1: Gamma-crystallin S (Homo sapiens), P22914 (parent)
chain: MSKTGTKITFYEDKNFQGRRYDCDCDCADFHTYLSRCNSIKVEGGTWAVYERPNFAGYMYILPQGEYPEYQRWMGLNDRLSSCRAVHLPSGGQYKIQIFEKGDFSGQMYETTEDCPSIMEQFHMREIHSCKVLEGVWIFYELPNYRGRQYLLDKKEYRKPIDWGAASPAVQSFRRIVE
partner: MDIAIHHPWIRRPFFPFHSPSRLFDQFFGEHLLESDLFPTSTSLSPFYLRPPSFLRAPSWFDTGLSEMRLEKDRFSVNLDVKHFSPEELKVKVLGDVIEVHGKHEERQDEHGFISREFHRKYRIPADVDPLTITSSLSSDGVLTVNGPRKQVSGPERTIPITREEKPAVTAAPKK

Variants of: B1
Details: with cryab_human CRYAB

| effect of a mutation on the interaction | Variant |
| --- | --- |
| increasing interaction strength | MSKTGTKITFYEDKNFQVRRYDCDCDCADFHTYLSRCNSIKVEGGTWAVYERPNFAGYMYILPQGEYPEYQRWMGLNDRLSSCRAVHLPSGGQYKIQIFEKGDFSGQMYETTEDCPSIMEQFHMREIHSCKVLEGVWIFYELPNYRGRQYLLDKKEYRKPIDWGAASPAVQSFRRIVE |
